Changes are numbered by the printed parent chain. Names and notes keep the numbering of the source.
T1: TNFR1 (Homo sapiens, UniProt P19438)
T1 chain: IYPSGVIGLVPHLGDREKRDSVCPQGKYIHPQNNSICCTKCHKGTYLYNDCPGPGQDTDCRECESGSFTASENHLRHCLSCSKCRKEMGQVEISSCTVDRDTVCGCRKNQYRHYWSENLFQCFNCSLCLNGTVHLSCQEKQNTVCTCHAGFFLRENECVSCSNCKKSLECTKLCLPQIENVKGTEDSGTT

B1: A102K (designed binder)
chain: MTLQELLREEALRRAEAEAFRYALELLAEKFPEQKEYLLDLAEEIESQIRSLSGVDVEDVRKFLDKEWAWVKELLAEHPAELAEVEAARAARLAELRAEVEKKVAA
B2: A91L (designed binder)
chain: B1 chain with A91L, K102A
B3: S47R (designed binder)
chain: B1 chain with S47R, K102A
B4: V55F (designed binder)
chain: B1 chain with V55F, K102A
B5: A19K (designed binder)
chain: B1 chain with A19K, K102A
B6: E44D (designed binder)
chain: B1 chain with E44D, K102A
B7: A69F (designed binder)
chain: B1 chain with A69F, K102A
B8: A105G (designed binder)
chain: B1 chain with K102A, A105G
B9: L24V (designed binder)
chain: B1 chain with L24V, K102A
B10: A102N (designed binder)
chain: B1 chain with K102N
B11: E16S (designed binder)
chain: B1 chain with E16S, K102A
B12: I49E (designed binder)
chain: B1 chain with I49E, K102A
B13: L39N (designed binder)
chain: B1 chain with L39N, K102A
B14: A17Y (designed binder)
chain: B1 chain with A17Y, K102A
B15: R13C (designed binder)
chain: B1 chain with R13C, K102A
B16: L41S (designed binder)
chain: B1 chain with L41S, K102A
B17: L27Y (designed binder)
chain: B1 chain with L27Y, K102A
B18: R97F (designed binder)
chain: B1 chain with R97F, K102A
B19: L93R (designed binder)
chain: B1 chain with L93R, K102A
B20: K103P (designed binder)
chain: B1 chain with K102A, K103P
B21: E18N (designed binder)
chain: B1 chain with E18N, K102A
B22: V60K (designed binder)
chain: B1 chain with V60K, K102A
B23: A102V (designed binder)
chain: B1 chain with K102V
B24: F20Q (designed binder)
chain: B1 chain with F20Q, K102A

Molecular target: T1, TNFR1
Experiment: yeast display SC50

apparent Kd (screen)	Binder
0.539 nM	B1
0.539 nM	B2
0.49 nM	B3
0.869 nM	B4
10.4 nM	B5
7.78 nM	B6
0.956 nM	B7
0.869 nM	B8
0.653 nM	B9
0.539 nM	B10
0.653 nM	B11
2.48 nM	B12
2.48 nM	B13
0.593 nM	B14
0.539 nM	B15
1.16 nM	B16
0.539 nM	B17
0.49 nM	B18
0.869 nM	B19
0.539 nM	B20
0.49 nM	B21
3 nM	B22
0.539 nM	B23
2.25 nM	B24

From article PMC12416549 (2024)
